The target of the assay is full-length ParE-ParC55 fusion protein of S. pneumoniae topoisomerase IV (Streptococcus pneumoniae) (UniProt Q59961). The assay can be described thus: crystal structure; full-length ParE-ParC55 fusion protein with 34 bp V-site DNA (1:2.2 protein:DNA), MgCl2; sitting drop, 50 mM sodium citrate pH 5.0, 4-7% isopropanol; space group P4(2)2(1)2, 3.7 Å; no ATP.

One may read the stoichiometry N as a count of units in the complex or per binding partner. For the substance “full-length ParE-ParC55 fusion protein of S. pneumoniae topoisomerase IV (from UniProt Q59961 1-647; P72525 1-488) (enzyme)”, the stoichiometry N turned out to be 2.

These data come from PMC3834822.
